In series [1] the target is T1, KlRad5 (Kluyveromyces lactis, UniProt Q6CJM4 163-1114).
T1 sequence: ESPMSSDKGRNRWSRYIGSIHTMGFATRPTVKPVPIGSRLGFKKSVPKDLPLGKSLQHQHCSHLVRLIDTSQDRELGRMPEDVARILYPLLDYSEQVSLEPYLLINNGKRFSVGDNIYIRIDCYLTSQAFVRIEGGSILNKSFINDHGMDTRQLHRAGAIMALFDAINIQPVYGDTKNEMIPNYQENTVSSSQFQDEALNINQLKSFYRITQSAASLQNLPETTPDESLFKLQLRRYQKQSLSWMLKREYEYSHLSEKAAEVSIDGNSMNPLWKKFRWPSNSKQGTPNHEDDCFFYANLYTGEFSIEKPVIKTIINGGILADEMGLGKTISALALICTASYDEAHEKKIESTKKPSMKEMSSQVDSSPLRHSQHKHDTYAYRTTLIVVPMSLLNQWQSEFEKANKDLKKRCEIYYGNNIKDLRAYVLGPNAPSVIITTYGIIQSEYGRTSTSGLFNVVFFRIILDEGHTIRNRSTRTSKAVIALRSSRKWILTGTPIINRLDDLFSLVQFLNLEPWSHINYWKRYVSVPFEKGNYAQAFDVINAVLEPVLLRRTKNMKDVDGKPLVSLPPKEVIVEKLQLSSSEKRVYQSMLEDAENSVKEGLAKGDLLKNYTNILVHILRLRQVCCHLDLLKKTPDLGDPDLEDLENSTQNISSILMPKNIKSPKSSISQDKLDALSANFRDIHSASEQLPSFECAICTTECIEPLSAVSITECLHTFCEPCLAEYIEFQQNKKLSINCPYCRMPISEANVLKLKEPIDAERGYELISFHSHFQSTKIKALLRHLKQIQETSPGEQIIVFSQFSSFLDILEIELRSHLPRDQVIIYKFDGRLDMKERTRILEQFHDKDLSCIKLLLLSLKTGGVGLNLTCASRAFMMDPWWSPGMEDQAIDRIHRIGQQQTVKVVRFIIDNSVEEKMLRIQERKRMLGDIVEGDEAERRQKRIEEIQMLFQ
Briefly: fluorescence polarization; 70 mM NaCl; similar to 5'-FAM; FP: 20 mM Tris pH 7.5, 50 mM (dsDNA, KlHIRAN) or 70 mM (ssDNA) NaCl, 2 mM MgCl2, 1 nM DNA, room temp; EMSA: 20 mM Tris pH 7.5, 100 mM KCl, 0.5 mM DTT, 3% glycerol, 2 mM MgCl2, 250 ug/mL BSA, 4 C; pull-down: 20 mM Tris pH 7.5, 50 mM NaCl, 4 C. The note with it: protein: recombinant; tags: none; label: 3'-FAM. Background: In fluorescence polarisation assays a small probe gives low polarisation when free and higher when bound to something large.

Series [2] has as its target T2, KlHIRAN (Kluyveromyces lactis, UniProt Q6CJM4 174-341).
T2 sequence: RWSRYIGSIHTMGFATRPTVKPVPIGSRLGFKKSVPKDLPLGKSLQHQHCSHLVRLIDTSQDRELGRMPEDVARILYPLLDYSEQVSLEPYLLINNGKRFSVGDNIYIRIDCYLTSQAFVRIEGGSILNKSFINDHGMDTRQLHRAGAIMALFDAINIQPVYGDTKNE
Put plainly: EMSA; FP: 20 mM Tris pH 7.5, 50 mM (dsDNA, KlHIRAN) or 70 mM (ssDNA) NaCl, 2 mM MgCl2, 1 nM DNA, room temp; EMSA: 20 mM Tris pH 7.5, 100 mM KCl, 0.5 mM DTT, 3% glycerol, 2 mM MgCl2, 250 ug/mL BSA, 4 C; pull-down: 20 mM Tris pH 7.5, 50 mM NaCl, 4 C. The note with it: protein: recombinant; tags: intein-CBD cleaved off; label: 5'-FAM.

Series [3] addresses T3, ScHIRAN (Saccharomyces cerevisiae, UniProt P32849 171-375).
T3 sequence: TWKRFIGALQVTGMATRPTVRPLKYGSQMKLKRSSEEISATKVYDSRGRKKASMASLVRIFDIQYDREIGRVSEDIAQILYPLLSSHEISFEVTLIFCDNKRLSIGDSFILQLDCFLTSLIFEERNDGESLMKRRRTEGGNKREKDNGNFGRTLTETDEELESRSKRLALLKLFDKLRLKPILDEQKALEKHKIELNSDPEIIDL
The description is as above. As to conditions: protein: recombinant; tags: intein-CBD cleaved off; label: 5'-FAM.

The target of series [4] is T4, HsHIRAN (Homo sapiens, UniProt Q14527 55-180).
T4 sequence: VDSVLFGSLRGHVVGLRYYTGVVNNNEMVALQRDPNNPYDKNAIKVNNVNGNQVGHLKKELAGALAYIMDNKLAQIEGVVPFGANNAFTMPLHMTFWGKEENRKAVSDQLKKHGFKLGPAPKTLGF
Put plainly: EMSA; strong preference for free 3'-OH; FP: 20 mM Tris pH 7.5, 50 mM (dsDNA, KlHIRAN) or 70 mM (ssDNA) NaCl, 2 mM MgCl2, 1 nM DNA, room temp; EMSA: 20 mM Tris pH 7.5, 100 mM KCl, 0.5 mM DTT, 3% glycerol, 2 mM MgCl2, 250 ug/mL BSA, 4 C; pull-down: 20 mM Tris pH 7.5, 50 mM NaCl, 4 C. The note with it: protein: recombinant; tags: His (pET28a), HA; label: 5'-FAM.

For series [5], the target named is T5, His-KlRad5 (Kluyveromyces lactis, UniProt Q6CJM4 163-1114).
T5 sequence: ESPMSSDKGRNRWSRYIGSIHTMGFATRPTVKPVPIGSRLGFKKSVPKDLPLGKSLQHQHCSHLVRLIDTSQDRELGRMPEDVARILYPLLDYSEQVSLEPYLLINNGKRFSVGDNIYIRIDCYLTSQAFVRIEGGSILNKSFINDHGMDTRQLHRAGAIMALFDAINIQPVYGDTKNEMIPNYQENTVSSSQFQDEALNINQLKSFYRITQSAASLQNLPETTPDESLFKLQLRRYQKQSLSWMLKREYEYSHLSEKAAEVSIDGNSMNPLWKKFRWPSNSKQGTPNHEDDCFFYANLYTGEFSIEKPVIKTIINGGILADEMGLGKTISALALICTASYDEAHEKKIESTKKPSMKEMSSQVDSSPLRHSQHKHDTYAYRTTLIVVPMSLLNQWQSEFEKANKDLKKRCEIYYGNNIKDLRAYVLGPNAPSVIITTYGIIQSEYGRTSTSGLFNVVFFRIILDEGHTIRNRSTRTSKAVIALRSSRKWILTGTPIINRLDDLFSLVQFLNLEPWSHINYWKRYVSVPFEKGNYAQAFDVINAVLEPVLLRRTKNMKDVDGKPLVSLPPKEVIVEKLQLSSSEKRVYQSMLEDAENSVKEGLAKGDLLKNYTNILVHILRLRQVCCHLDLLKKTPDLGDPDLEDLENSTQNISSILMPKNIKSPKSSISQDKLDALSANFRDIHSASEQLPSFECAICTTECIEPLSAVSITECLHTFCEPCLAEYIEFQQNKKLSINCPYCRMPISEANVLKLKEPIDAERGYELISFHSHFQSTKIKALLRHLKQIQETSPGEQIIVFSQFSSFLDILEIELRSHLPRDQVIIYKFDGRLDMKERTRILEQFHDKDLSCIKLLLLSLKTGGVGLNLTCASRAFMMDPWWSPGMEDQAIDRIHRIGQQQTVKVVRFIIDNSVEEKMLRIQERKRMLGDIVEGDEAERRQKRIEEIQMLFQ
Put plainly: fluorescence polarization; FP: 20 mM Tris pH 7.5, 50 mM (dsDNA, KlHIRAN) or 70 mM (ssDNA) NaCl, 2 mM MgCl2, 1 nM DNA, room temp; EMSA: 20 mM Tris pH 7.5, 100 mM KCl, 0.5 mM DTT, 3% glycerol, 2 mM MgCl2, 250 ug/mL BSA, 4 C; pull-down: 20 mM Tris pH 7.5, 50 mM NaCl, 4 C. As to conditions: protein: recombinant; tags: N-terminal His6; label: 5'-FAM.

In series [6] the target is T1, KlRad5. Put plainly: fluorescence polarization; 70 mM NaCl; FP: 20 mM Tris pH 7.5, 50 mM (dsDNA, KlHIRAN) or 70 mM (ssDNA) NaCl, 2 mM MgCl2, 1 nM DNA, room temp; EMSA: 20 mM Tris pH 7.5, 100 mM KCl, 0.5 mM DTT, 3% glycerol, 2 mM MgCl2, 250 ug/mL BSA, 4 C; pull-down: 20 mM Tris pH 7.5, 50 mM NaCl, 4 C. The note with it: protein: recombinant; tags: none; label: 5'-FAM.

TTTTTTTCGTCTTCGGCAATTTTTT (ssDNA) [S1 ssDNA, 3'-FAM]: the binding result in series [1] was “binds”.

For the molecule TTTTTTTTTT (ssDNA) [dT10, 5'-FAM], the binding result in series [2], in series [3] and in series [4] was “binds” each time.

Take TTTTTTTCGTCTTCGGCAATTTTTT (ssDNA) [S1 ssDNA, 5'-FAM]: the binding result in series [5] and in series [6] was “binds” throughout.

The values are drawn from article PMC7804152, “Structural basis for the multi-activity factor Rad5 in replication stress tolerance”.
